Experimental data from patent publication US10175123B2, “MEMS-based calorimeter, fabrication, and use thereof” (THE TRUSTEES OF COLUMBIA UNIVERSITY IN THE CITY OF NEW YORK, priority 2013, dated 2019).

Key:
[1] = MEMS DSC measurement of lysozyme unfolding; type: physicochemical; settings: 1 to 20 mg/mL in 0.1 M Glycine-HCl buffer pH 2.5, scan 25-75 °C at 5 °C/min
Procedure: DSC measurements of biomolecules were performed using the calibrated microdevice, whose sample chamber and reference chamber were respectively filled with biological sample and buffer solutions, scanned in a range of temperature of interest. The temperature sensors were used to monitor the temperatures of calorimetric chambers while the device output was obtained in real time to compute the biomolecular thermal power. Before DSC measurements, the baseline in device output, i.e., the thermopile output voltage in the absence of a differential power input, during temperature scanning was measured with both calorimetric chambers filled with buffer solutions. […]
The thermopile output voltage as a function of temperature, corrected by baseline subtraction, was measured at varying protein concentrations ranging from 1 to 20 mg/mL (FIG. 10).
Despite the amplitude difference of device output at various protein concentrations, they all yielded consistent estimates of the thermodynamic properties associated with the protein unfolding process. In particular, the profile shape of c was generally not influenced by protein concentration, and ΔH was consistently determined to be approximately 450 kJ/mol with a corresponding melting temperature Tm of approximately 55° C.

[2] = MEMS AC-DSC measurement of lysozyme unfolding; type: physicochemical; settings: 10 and 20 mg/mL, 0.1 M Glycine-HCl pH 2.5, 25 to 82 °C at 5 °C/min, AC modulation 1, 5 or 10 Hz; depends on modulation frequency
Excerpt: The MEMS AC-DSC device calibrated above was used to measure the thermal behavior of protein unfolding.
Meanwhile, the specific heat capacity (c) of the protein as a function of temperature can be computed from the thermopile voltage amplitude (FIG. 19).

[3] = Polymer MEMS DSC measurement of lysozyme unfolding; type: physicochemical; settings: 0.1 M Glycine-HCl buffer pH 2.5, 5 K/min, all concentrations except 1 mg/mL
Procedure: Before DSC measurements, the baseline, i.e., the thermopile output voltage in the absence of a differential power input, during temperature scanning in the range of interest was recorded with both calorimetric channels filled with buffer solutions. After which, characterizations of biomolecules were performed with the calorimetric channels, respectively filled with a biological sample and a buffer solutions, and scanned in the same range with pre-specified rate. The temperature sensors were used to monitor the temperatures of calorimetric channels, while the device output was obtained in real time to compute the biomolecular thermal power.
The calibrated polymer MEMS DSC device was then exploited to characterize protein unfolding. Glycine-HCl buffer (0.1 M, pH 2.5) was filled in both sample and reference calorimetric channels while the device was scanned at a constant rate of 5 K/min. […]
The thermopile differential voltage as a function of temperature, corrected by baseline subtraction, was measured at varying concentrations ranging from 1 to 20 mg/mL (FIG. 42). […] Furthermore, the differential heat capacity as a function of temperature and the calibrated device sensitivity can be calculated from the device voltage output by Equation 7. The sample heat capacity as a function of temperature was determined by: […]

[4] = typical range of published data; cited from earlier work

lysozyme: targeted sample biomolecule, purchased from Sigma Aldrich (lyophilized powder, protein ≥90%)
melting temperature Tm [1]: approximately 55 °C | total change of molar enthalpy (ΔH) of unfolding [1]: approximately 450 kJ/mol | apparent melting temperature (Tm) [2]: 55-58 °C | melting temperature Tm [3]: 54.71 °C | total enthalpy change per mole (ΔH) of unfolding [3]: 101 kcal/mol | Tm, published data [4]: 55-58.9 °C | ΔH of unfolding, published data [4]: 90.1 to 105 kcal/mol
